Reference: patent publication US20240417463A1 (ADAGENE PTE, published 2024)
Each block holds one molecule with its values, some of them ahead of it.

Tests used:
[1] = molecular target: human CD47 on the cell surface (CEM, Raji and other human tumor cells, human RBCs) (human) (UniProt Q08722); experiment: flow cytometry, human RBCs, batch 2
[2] = molecular target: T1, human CD47 on the cell surface (CEM, Raji and other human tumor cells, human RBCs) (human, UniProt Q08722 19-323); experiment: cell-based or functional assay
[3] = molecular target: T1, human CD47 on the cell surface (CEM, …); experiment: flow cytometry, CEM cells, batch 2; CEM tumor cells, batch 2
[4] = molecular target: T2, hCD47-ECD/Fc protein (Sinobiological) (human, UniProt Q08722 19-139, biotinylated in the Octet assay, sites not stated); experiment: BLI (Octet RED96), biotin-hCD47-ECD/Fc on SA sensors, 1:1 model;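 also: test antibodies as analytes, 300 s association then 300 s dissociation in running buffer, with benchmark reference antibodies run as controls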
T2 construct: extracellular domain; Bought protein; also called human CD47-Fc antigen; recombinant hCD47-ECD/Fc; not shown: Fc part of the bought fusion protein

[5] = molecular target: T1, human CD47 on the cell surface (CEM, …); experiment: flow cytometry, Raji cells, batch 3; Raji tumor cells, batch 3

max MFI [1]: 105 MFI
Molecule: Isotype control (RBC binding, Table 15) (antibody)

EC50 of macrophage phagocytosis of CEM cells, donor A [2]: 4.4 nM
EC50 of macrophage phagocytosis of CEM cells, donor B [2]: 0.83 nM
Max. Phagocytosis (%), donor A [2]: 29.7%
Max. Phagocytosis (%), donor B [2]: 29%
EC50 [3]: 1.18 nM
Kd [4]: 1.4 nM
koff [4]: 0.000729 s⁻¹
kon [4]: 520000 M⁻¹ s⁻¹
EC50 [5]: 1.97 nM
B1: TAC2407 (antibody, V domains shown)
VH: EVQLVESGGGLVKPGGSLRLSCAASGLTFERAWMNWVRQAPGKGLEWVGRIKRKTDGETTDYAAPVKGRFSISRDDSKNTLYLQMNSLKTEDTAVYYCAGSNRAFDIWGQGTMVTVSS
VL: DIVMTQSPDSLAVSLGERATINCKSSQSVLYAGNNRNYLAWYQQKPGQPPKLLINQASTRASGVPDRFSGSGSGTEFTLIISSLQAEDVAIYYCQQYYTPPLAFGGGTKLEIK
notes: Benchmark anti-CD47 antibody; also called 13H3; TJC4
